# Measurements as given in the supplement of paper PMC9732359.
# ± gives the uncertainty stated by the source.
# Assay: protein stability index of a GFP-peptide fusion (yeast GPS) (PSI 1-4); higher = more stable; sorted into four equal gates, so the index is relative within each strain
# How it was run: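 The protein stability index of a peptide was calculated by multiplying its read frequency in each gate by that gate's number and adding the products. The peptides were tiled 17-residue stretches of yeast proteins, fused downstream of GFP on a Cherry-expressing plasmid and carried in yeast as a pooled library. Mid-log cultures in leucine-free medium were sorted into four equal gates by GFP/Cherry ratio, and each gate's plasmids were PCR-amplified and Illumina-sequenced.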
Sequence,protein stability index (doa10∆),protein stability index (pdr5∆),protein stability index (san1∆),protein stability index (ubr1∆)
TPSFSFGAKSDENKAGA [YJL041W/NSP1],3.51 ± 0.28,3.19 ± 0.16,3.17 ± 0.15,–
TLSEPVQGELKPTVILK [FAS1],2.23 ± 0.054,2.22 ± 0.059,2.08 ± 0.072,1.63 ± 0.038
DGTAQLSNNKTDEEEQL [YJR042W/NUP85],2.77 ± 0.25,3.16 ± 0.14,3.27 ± 0.15,3.18 ± 0.098
TSDSESTLYKYLKESKR [SWI3],3.11 ± 0.084,2.66 ± 0.11,2.89 ± 0.12,2.74 ± 0.054
KKCIDFFEMLISKSLTF [RRI2],2.13 ± 0.055,2.13 ± 0.041,1.96 ± 0.061,2.27 ± 0.038
DNLLEMSDHSLDKLNCA [RRP6],3.28 ± 0.099,3 ± 0.068,3.22 ± 0.1,3.25 ± 0.049
LLERGRLRKRVTIIPLD [SMC2],2.25 ± 0.06,2.71 ± 0.059,2.26 ± 0.059,2.12 ± 0.057
SRPDILSKIKFPESIWK [YCG1],2.77 ± 0.049,2.04 ± 0.037,1.92 ± 0.058,2.06 ± 0.029
RNADELSSYQKKIIKCD [PRE5],2.25 ± 0.058,2.08 ± 0.084,2.58 ± 0.086,1.65 ± 0.049
RRRAFKRSQKKHKKKHL [RPB4],3.16 ± 0.091,3.1 ± 0.078,3.13 ± 0.057,3.46 ± 0.077
VRTNTLTKAAIVQIDAT [RPS8A],2.233 ± 0.022,2.54 ± 0.023,2.37 ± 0.026,2.297 ± 0.019
DDDILIIRPILGKVRFA [SRB4],1.51 ± 0.056,1.66 ± 0.092,1.93 ± 0.15,2.56 ± 0.05
HGQKGVCGIIVKQEDMP [RET1],2.93 ± 0.24,1.35 ± 0.16,–,–
TRKGYIPSSKYAYMMNS [YLR018C/POM34],3.08 ± 0.11,2.73 ± 0.12,2.98 ± 0.21,2.65 ± 0.14
KDALSNSILSVRDPWSI [SRB2],3.27 ± 0.07,3.41 ± 0.087,3.1 ± 0.06,3.36 ± 0.093
KDMLYSGITGECLQAYI [RET1],2.65 ± 0.047,2.68 ± 0.051,2.5 ± 0.052,2.31 ± 0.057
SAKPTFSFSKSEEERKS [YOR098C/NUP1],1.96 ± 0.14,–,1.93 ± 0.24,2.79 ± 0.25
RGGFGGRNRGRPNRRGP [RPS2],3.37 ± 0.095,3.28 ± 0.14,3.44 ± 0.077,3.4 ± 0.13
YQVEYAFKATNQTNINS [SCL1],2.97 ± 0.072,3.19 ± 0.056,2.99 ± 0.081,3.06 ± 0.073
QLKMVNERELNVFARLS [RPC82],–,2 ± 0.2,–,2.95 ± 0.12
VTEMSNNANVLGGEIND [BRR2],3.18 ± 0.11,3.18 ± 0.12,3.51 ± 0.085,3.15 ± 0.064
KRYANHTQDIIGGMRVD [RET1],3.11 ± 0.069,3.41 ± 0.075,3.19 ± 0.049,3.37 ± 0.049
DIEQLEYSRDCFCEDHC [RPB3],3.1 ± 0.064,2.54 ± 0.052,2.92 ± 0.066,2.61 ± 0.065
AQFLRSVVHPGEMVGVL [RPO21],2.23 ± 0.081,1.93 ± 0.08,2.3 ± 0.1,1.49 ± 0.054
LINDSYINDVHLLYPPH [SSN8],3.29 ± 0.058,3.14 ± 0.057,2.96 ± 0.045,3.25 ± 0.053
VDDLRPEFAGYSKAAEP [ASC1],3.18 ± 0.23,–,–,3.67 ± 0.16
SKDVSRLLSALGPRGVS [SRP21],3.09 ± 0.14,2.54 ± 0.28,–,2.83 ± 0.084

Sequence,protein stability index (doa10∆),protein stability index (pdr5∆),protein stability index (san1∆),protein stability index (ubr1∆)
TELKKITDKTIKAFMDS [IRR1],2.99 ± 0.065,2.42 ± 0.054,2.46 ± 0.072,2.52 ± 0.079
NGDLTVSLCAKNMGLVP [SSN2],2.22 ± 0.081,2.23 ± 0.079,2.13 ± 0.091,2.17 ± 0.087
NKLSSILQNEHDYWNKI [SRB4],2.37 ± 0.069,2.41 ± 0.05,2.25 ± 0.099,2.47 ± 0.043
LFVISTEISPMAGSQFE [RRP45],1.89 ± 0.08,2.21 ± 0.06,2.8 ± 0.077,1.2 ± 0.11
HSNESSNETIGEIQLLF [IRR1],2.68 ± 0.11,2.83 ± 0.14,3.27 ± 0.082,2.92 ± 0.084
VMIAEIPTLAIDSVEVE [RPB3],2.3 ± 0.18,2.65 ± 0.11,–,–
KVVYIQRRSWRQYVGQL [DIS3],–,3.51 ± 0.17,3.02 ± 0.12,–
IIKQENFNSVNDANITS [SSN2],–,1.1 ± 0.11,–,–
LPNQIPGEYITTIKAIF [YMR129W/POM152],2.37 ± 0.055,2.51 ± 0.055,2.78 ± 0.053,3.11 ± 0.041
EESWEKVVEFAITHMID [SCL1],2.62 ± 0.087,2.92 ± 0.098,3.06 ± 0.083,2.91 ± 0.07
NHWRQNKGRAVYINPSG [BRR2],2.97 ± 0.12,2.78 ± 0.089,2.85 ± 0.074,3.16 ± 0.1
PNTTKTKLRAFVYNKVN [YGR119C/NUP57],2.47 ± 0.21,–,–,–
KLSEIILNINNSTSKNT [SWI1],2.96 ± 0.067,2.92 ± 0.077,2.74 ± 0.1,3.01 ± 0.062
PVSPLDIYSDEASAQKK [RPS2],2.74 ± 0.095,2.93 ± 0.093,3.02 ± 0.075,3.02 ± 0.06
GAELRSVCTEAGMFAIR [RPT1],2.61 ± 0.18,3.4 ± 0.3,–,3.03 ± 0.23
VEYLDVNEENDSYIALY [RET1],2.97 ± 0.14,3.08 ± 0.19,3.2 ± 0.08,3.2 ± 0.12
CNSIINKLGALKTNFET [RPB11],2.57 ± 0.089,2.42 ± 0.099,2.68 ± 0.088,3.05 ± 0.17
GTTATGTGLFGQQTAQP [YGR119C/NUP57],2.91 ± 0.16,2.76 ± 0.079,3.02 ± 0.18,3 ± 0.14
RRLPMTMFTAEQSELLK [SNF2],2.99 ± 0.073,3.08 ± 0.073,2.83 ± 0.053,2.91 ± 0.055
ALRGMFKDRFKDEPVQN [FAS2],3.56 ± 0.087,3.43 ± 0.085,3.35 ± 0.069,3.58 ± 0.11
PPPPPPSNFEINAEEIV [PRP8],2.6 ± 0.038,3.04 ± 0.046,2.72 ± 0.039,2.9 ± 0.038
AIIGLKSGTSHDAIFSI [SNF12],2.56 ± 0.11,2.65 ± 0.082,2.5 ± 0.069,2.96 ± 0.17
ILSSVNRTVLLKIFKIF [SRB8],1.37 ± 0.083,1.42 ± 0.14,1.17 ± 0.16,1.13 ± 0.093
IGLPRHSLAYLLENFAN [RRP6],1.67 ± 0.04,1.78 ± 0.041,1.64 ± 0.072,1.87 ± 0.025
SLHPLFEQFEKFYEEKL [RPN9],2.67 ± 0.24,2.9 ± 0.16,–,–
PAVKQWDLLPEPIRFLP [SWI1],2.28 ± 0.058,2.27 ± 0.069,2.33 ± 0.055,2.53 ± 0.072
SVRIDGRKVLQKVQGES [SIR4],2.75 ± 0.089,3.11 ± 0.067,2.98 ± 0.066,2.88 ± 0.064
